According to paper PMC8671415:

How the values were obtained:
[1] = molecular target: RAGE peptide (Sino Biological), receptor for advanced glycation end products (UniProt Q15109); assay: SPR; RANK or RAGE (5 μg/ml in 10 mM sodium acetate, pH 5.5) immobilised on the sensor chip; AOPPs 350 to 1050 μg/ml injected, 1050 μg/ml RSA as vehicle; 25 °C, 30 μl/min; PlexArray HT A100
[2] = molecular target: RANK peptide (Sino Biological), receptor activator of nuclear factor κ B (UniProt Q9Y6Q6); assay: as above
UniProt Q9Y6Q6, sequence (Q9Y6Q6 30-212): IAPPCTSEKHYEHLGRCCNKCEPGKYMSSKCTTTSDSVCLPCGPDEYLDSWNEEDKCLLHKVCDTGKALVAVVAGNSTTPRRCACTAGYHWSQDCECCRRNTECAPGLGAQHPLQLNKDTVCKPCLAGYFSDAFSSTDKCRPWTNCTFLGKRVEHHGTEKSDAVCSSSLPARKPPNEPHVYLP

UniProt Q15109, sequence (Q15109 23-342): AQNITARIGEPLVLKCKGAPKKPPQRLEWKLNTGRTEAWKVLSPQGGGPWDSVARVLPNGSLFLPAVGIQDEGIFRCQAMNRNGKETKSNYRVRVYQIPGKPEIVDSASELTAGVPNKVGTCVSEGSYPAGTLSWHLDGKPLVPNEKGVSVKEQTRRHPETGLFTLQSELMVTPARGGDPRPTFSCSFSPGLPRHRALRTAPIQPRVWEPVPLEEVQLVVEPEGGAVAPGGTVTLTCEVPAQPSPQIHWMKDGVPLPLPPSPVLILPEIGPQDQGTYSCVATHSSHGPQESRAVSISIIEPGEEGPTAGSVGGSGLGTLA

**Q.** Which Kd [1] does the source give for “Advanced oxidation protein products (AOPPs), prepared from rat serum albumin with hypochlorous acid (from UniProt P02770 25-608)” here?
**A.** Its Kd is 1340 nM.

**Q.** And the Kd [2]?
**A.** The Kd was 3020 nM.
